Reference: US6878521B1, “Fibril-blocking peptide, a method for preventing fibril formation” (The University of Chicago, priority 1999, dated 2005)
“Also recorded” adds a separate entry of the source. Where a SMILES comes first, the peptide text is derived from it. [ ]: non-standard residue; d: D form. Nle = CCCC[C@H](N)C(=O)O

Columns and labels:
[1] = test system: SMA LC expressed in COS cells; assay: aggresome formation in SMA-transfected COS cells, immunofluorescence; assay type: cell-based; details: for cells exhibiting aggresomes: anti-kappa stained cells, peptides added with ALLN; for proportion of COS cells containing aggresomes: SMA-transfected, immunofluorescence, Hsp70 co-expressed, with or without ALLN
Description: COS-1 cells were transiently transfected with FuGENE 6 transfection reagent (Roche Molecular Biochemicals, Indianapolis, Ind.) according to manufacturer's instructions and analyzed two days later. Overnight incubations with various concentrations of ALLN (SEQ. ID. NO. 11) (Sigma Chemical Co., St. Louis, Mo.), 10 μM lactacystin (Calbiochem, La Jolla, Calif.), 10 μg/ml nocodazole (Sigma), or various concentrations of peptides were begun the day following transfection.
A peptide was synthesized that fused an HIV TAT sequence (YGRKKRRQRRR) (SEQ. ID. NO. 8) with the VL derived sequence which the inventors have shown inhibit fiber formation in vitro, discussed supra. To ensure adequate flexibility and solubility, additional VL sequence was added on both sides of the active 7-mer, generating the following sequence for the TAT-TISS peptide: NH2-[…]-OH. (SEQ. ID. NO. 9) A control peptide was synthesized (TAT-PASS) in which the critical hydrophobic residues were substituted with alanines and the extended structure of the peptide destroyed by the addition of a proline (NH2-[…]-OH). (SEQ. ID. NO. 10) cells were treated with either peptide 24 h after transfection and incubated overnight in the presence of the indicated concentrations of ALLN. (SEQ. ID. NO. […]) Cells were then harvested for western blotting or immunofluorescence as described above.
Without ALLN (SEQ. ID. NO. 11) treatment 30% of the COS cells contained aggresomes as assayed by immunofluorescence.
Lastly, the inventors determined that the decrease in steady state level of SMA in the presence of TAT-TISS (SEQ. ID. NO. 9) peptide correlated with a decrease in the frequency of aggresome formation, by scoring anti-kappa stained cells.

[2] = test system: SMA LC expressed in COS-1 cells; assay: biochemical assay of soluble and insoluble SMA in transfected COS-1 cells (western blot); assay type: cell-based; details: for amount of SMA recovered: 50 μM peptide, overnight, 1-10 μg/ml ALLN; for intracellular aggregation of SMA: in cells, result in words
[3] = molecular target: T1, SMA (kappa-IV recombinant VL) (Homo sapiens, UniProt P06312, K56R/P66L/Q115H/T120H); assay: agitation-based in vitro SMA fibril formation assay (fluorescence); assay type: biochemical; details: for inhibition of SMA fibril formation: in vitro, result in words
T1 construct: two kappa-IV recombinant VL, LEN and SMA; made in house
Description: Further, the inventors used an agitation-based in vitro assay to assemble fibrils from two kappa-IV recombinant VL, LEN and SMA.
Fibril formation was measured over time at each peptide concentration. The extent of SMA fibril formation at 45 hours in the presence of various concentration so fthe peptides is plotted relative to that of SMA alone at 45 hours.
In the BiP reactions, SMA fibril formation was assayed in the range of 1 to 1000 moles SMA per mole of fibril antagonist.

λ6 VL protein = assay: in vitro fibril assembly of λ6 VL protein; assay type: biochemical
SMA = assay: co-immunoprecipitation with SMA using anti-kappa antibody; assay type: binding, human; details: co-transfected, metabolically labeled cells, soluble fractions
Description: Culture, metabolic labeling, lysis and immunoprecipitation of COS-1 cells were performed as described in Dul et al. Immunol. […] The following antibodies were used in immunoprecipitations: rabbit anti-human kappa antibody (Bethyl Labs, Montgomery, Tex.); goat anti-human kappa (Caltag, Burlingame, Calif.); mouse anti-ubiquitin (StressGen, Victoria, BC, Canada).
Endogenous Hsp70 was also associated with SMA, but was not dramatically enriched.

[4] = molecular target: SMA, recombinant kappa-IV light chain variable domain (VL) (human); assay: cell-based or functional assay
transthyretin = transthyretin (Homo sapiens, UniProt P02766); details: Peterson et al. 1998; cited from earlier work

Chain of BiP (binding protein), endoplasmic reticulum chaperone, recombinant wild type (P07823 19-654): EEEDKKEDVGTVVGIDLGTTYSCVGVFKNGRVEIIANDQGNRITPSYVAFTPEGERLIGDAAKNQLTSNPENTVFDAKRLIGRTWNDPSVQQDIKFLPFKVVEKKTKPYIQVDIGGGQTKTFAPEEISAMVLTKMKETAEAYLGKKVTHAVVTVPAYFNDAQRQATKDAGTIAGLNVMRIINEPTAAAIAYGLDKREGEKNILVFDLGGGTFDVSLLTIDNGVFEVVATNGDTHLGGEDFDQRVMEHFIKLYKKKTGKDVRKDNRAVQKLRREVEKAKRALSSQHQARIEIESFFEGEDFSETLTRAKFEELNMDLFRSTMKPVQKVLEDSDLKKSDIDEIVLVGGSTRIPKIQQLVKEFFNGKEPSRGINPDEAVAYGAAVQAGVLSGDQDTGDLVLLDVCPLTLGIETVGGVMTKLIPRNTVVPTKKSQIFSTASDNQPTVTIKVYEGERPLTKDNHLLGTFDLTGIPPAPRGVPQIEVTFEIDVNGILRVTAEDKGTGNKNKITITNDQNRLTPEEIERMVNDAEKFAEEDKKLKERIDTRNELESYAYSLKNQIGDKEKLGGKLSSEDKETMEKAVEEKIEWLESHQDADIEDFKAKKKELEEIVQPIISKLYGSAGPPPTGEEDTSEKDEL

H-YGRKKRRQRRRSGSGTDFTLTISSLQAED-OH [TAT-TISS]
cells exhibiting aggresomes [1]: 25%
ubiquitinated forms of SMA [2]: diminished
amount of SMA recovered [2]: dramatically reduced

FTLKISR
inhibition of SMA fibril formation [3]: inhibited as well as FTLTISS
inhibition of fibril assembly of λ6 VL protein (λ6 VL protein): inhibited fibril assembly

TRIFSKL [reference compound]
inhibition of SMA fibril formation [3]: ineffective fibril blocker

ferritin [reference compound]
inhibition of SMA fibril formation [3]: did not significantly decrease fibril formation

CCCC[C@@H](C=O)NC(=O)[C@H](CC(C)C)NC(=O)[C@H](CC(C)C)NC(C)=O [ALLN, reference compound] (Ac-Leu-Leu-[Nle]-aldehyde)
proportion of COS cells containing aggresomes [1]: 75%
cells exhibiting aggresomes [1]: about 65%

TDFTLTI
inhibition of SMA fibril formation [3]: markedly inhibited the aggregation

Hsp70: heat shock protein 70, a family member of BiP; cytosolic chaperone
inhibition of SMA fibril formation [3]: blocked fibril formation
inhibition of SMA fibril formation ([3]; listed as heat shock protein (hsp)70): did inhibit fibril formation
association with SMA by co-immunoprecipitation (SMA): specifically co-immunoprecipitated with SMA
proportion of COS cells containing aggresomes [1]: 12%
frequency of aggresome formation ([1]; co-expression with SMA, result in words): decreases the frequency of aggresome formation
ubiquitinated forms of SMA [2]: decrease in the pool of ubiquitinated SMA
intracellular aggregation of SMA [2]: decreases its aggregation

PKLLIYWA
inhibition of SMA fibril formation [3]: partial inhibition

FYQLALT [reference compound]
effect of prebinding BiP with peptide on BiP's suppression of fibril assembly ([3]; BiP incubated with peptide before aggregation reaction): blocked the chaperone's ability to suppress fibril assembly

Lysozyme [reference compound]
inhibition of SMA fibril formation [3]: no appreciable fibril blocking ability
inhibition of SMA fibril formation ([3]; listed as lysozome): did not significantly decrease fibril formation

FTLTISS [Phe71-Thr72-Leu73-Thr74-Ile75-Ser76-Ser77, peptide of positions 71 through 77 of human kappa-4 light chain variable domain]
inhibition of SMA fibril formation [3]: fibril blocking; also recorded: markedly inhibited the aggregation
intracellular aggregation of SMA [2]: effective in reducing intracellular aggregation

BiP (binding protein), endoplasmic reticulum chaperone, recombinant wild type
SMA fibril formation (fluorescence units) at 30 SMA:1 BiP [4]: < 10 percent
SMA fibril formation (fluorescence) at 100:1 stoichiometric ratio [4]: 75 percent
SMA fibril formation (fluorescence) at 300:1 stoichiometric ratio [4]: 100 percent
inhibition of SMA ordered aggregation at 75 hours, 1 mole BiP per 100 moles SMA [4]: 50%

albumin [reference compound]
inhibition of SMA fibril formation [3]: did not significantly decrease fibril formation

H-YGRKKRRQRRRSGSGTDATAPASSLQAED-OH [TAT-PASS, reference compound]
inhibition of SMA fibril formation [3]: does not inhibit fibril formation in vitro
cells exhibiting aggresomes [1]: no significant effect
effect on yield of SMA ([2]; 10 μg/ml ALLN, highest peptide concentration used): only a marginal effect
amount of SMA recovered [2]: no effect

O=C(O)c1ccccc1Nc1cccc(C(F)(F)F)c1 [flufenamic acid]
inhibition of conformational changes of transthyretin (transthyretin): inhibits the conformational changes
